Laboratory results as given in the supplement of paper PMC7877785.
± gives the uncertainty stated by the source.

Experiment: self-splicing fitness, log relative to wild type (ln ratio); higher = more splicing; Tetrahymena group I intron in knt gene, E. coli kanamycin selection, DiMSum; sequences stand for … in CUCUCU…GGAGGGAAAAGUUAUCAGGCAUGCACCUGGUAGCUAGUCUUUAAACCAAUAGAUUGCAUCGGUUUAAAAGGCAAGACCGUCAAAUUGCGGGAAAGGGGUCAACAGCCGUUCAGUACCAAGUCUCAGGGGAAACUUUGAGAUGGCCUUGCAAAGGGUAUGGUAAUAAGCUGACGGACAUGGUCCUAACCACGCAGCCAAGUCCUAAGUCAACAGAUCUUCUGUUGAUAUGGAUGCAGUUCACAGACUAAAUGUCGGUCGGGGAAGAUGUAUUCUUCUCAUAAGAUAUAGUCGGACCUCUCCUUAAUGGGAGCUAGCGGAUGAAGUGAUGCAACACUGGAGCCGCUGGGAACUAAUUUGUAUGCGAAAGUAUAUUGAUUAGUUUUGGAGUACUCGUGGUCG
Summary of the method: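 A randomised library covering all eight P1ex-region intron nucleotides was built with the intron in the knt kanamycin-resistance gene on pET-22b(+) and held in E. coli BL21(DE3). Cells were grown overnight at 37°C or 30°C on LB agar, with or without 25 μg/mL kanamycin, plus 100 μg/mL carbenicillin, 50 μM IPTG and 0.2% rhamnose, and pooled colonies were amplicon-sequenced on an Illumina HiSeq 2500. DiMSum fitness is the error-weighted combination of wild-type-normalised replicate fold changes, kanamycin versus none.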

Row | Sequence | self-splicing fitness (ln) (30 °C) | self-splicing fitness (ln) (37 °C)
1 | UGGCAGCAAUAUUACGGUGG | -0.928 ± 0.079 | -0.811 ± 0.11
2 | UGGCAGCAAUAUUACGUGAC | -2.83 ± 0.31 | -1.22 ± 0.25
3 | UGGCAGCAAUAUUACGUGCC | – | -1.69 ± 0.26
4 | UGGCAGCAAUAUUACGUUGU | -3.71 ± 0.29 | -3.17 ± 0.3
5 | UGGGAGCAAUAUUACGACCU | -0.992 ± 0.41 | -0.238 ± 0.46
6 | UGGGAGCAAUAUUACGACGU | -2.93 ± 0.22 | -2.37 ± 0.29
7 | UGGGAGCAAUAUUACGACUA | -1.68 ± 0.35 | 0.369 ± 0.3
8 | UGGGAGCAAUAUUACGAGGG | – | -1.99 ± 0.42
9 | UGGGAGCAAUAUUACGCACU | -3.4 ± 0.35 | -1.76 ± 0.33
10 | UGGGAGCAAUAUUACGCCGC | -2.27 ± 0.47 | –
11 | UGGGAGCAAUAUUACGCUCG | – | -1.25 ± 0.46
12 | UGGGAGCAAUAUUACGGAAA | -2.04 ± 0.31 | –
13 | UGGGAGCAAUAUUACGGAUA | -2.61 ± 0.32 | -2.52 ± 0.32
14 | UGGGAGCAAUAUUACGGCCA | -1.58 ± 0.13 | -0.684 ± 0.16
15 | UGGGAGCAAUAUUACGGGCA | -2.36 ± 0.16 | -0.757 ± 0.16
16 | UGGGAGCAAUAUUACGGGUU | – | -2.02 ± 0.47
17 | UGGGAGCAAUAUUACGUAAC | -1.63 ± 0.41 | –
18 | UGGGAGCAAUAUUACGUCUG | -1.46 ± 0.12 | -0.899 ± 0.17
19 | UGGGAGCAAUAUUACGUGCU | -2.65 ± 0.32 | -1.05 ± 0.25
20 | UGGGAGCAAUAUUACGUGGC | -4.39 ± 0.39 | -1.68 ± 0.23
21 | UGGGAGCAAUAUUACGUGUC | -2.08 ± 0.19 | -2.59 ± 0.33
22 | UGGGAGCAAUAUUACGUUGA | -3.73 ± 0.37 | -2.06 ± 0.27
23 | UGGGAGCAAUAUUACGUUUA | -2.62 ± 0.29 | -2.92 ± 0.33
24 | UGGUAGCAAUAUUACGACCU | -0.697 ± 0.13 | 0.261 ± 0.14
25 | UGGUAGCAAUAUUACGACGU | -0.945 ± 0.12 | -0.0819 ± 0.16
26 | UGGUAGCAAUAUUACGAGCA | -0.502 ± 0.15 | -0.131 ± 0.21

Row | Sequence | self-splicing fitness (ln) (30 °C) | self-splicing fitness (ln) (37 °C)
27 | UGGUAGCAAUAUUACGAGCC | -2.3 ± 0.32 | -1.91 ± 0.26
28 | UGGUAGCAAUAUUACGAGCG | -0.4 ± 0.053 | -0.521 ± 0.081
29 | UGGUAGCAAUAUUACGAUGU | -3.19 ± 0.19 | -2.12 ± 0.26
30 | UGGUAGCAAUAUUACGAUUC | -2.63 ± 0.24 | -2.05 ± 0.26
31 | UGGUAGCAAUAUUACGCACG | -0.419 ± 0.17 | –
32 | UGGUAGCAAUAUUACGCCUG | 0.0915 ± 0.14 | 0.675 ± 0.2
33 | UGGUAGCAAUAUUACGCGAG | -1.29 ± 0.17 | -2.17 ± 0.24
34 | UGGUAGCAAUAUUACGCGCA | -0.453 ± 0.1 | 0.351 ± 0.11
35 | UGGUAGCAAUAUUACGCGUG | -0.581 ± 0.087 | 0.251 ± 0.1
36 | UGGUAGCAAUAUUACGGACA | -0.879 ± 0.12 | 0.135 ± 0.16
37 | UGGUAGCAAUAUUACGGAGA | – | -1.24 ± 0.2
38 | UGGUAGCAAUAUUACGGAUG | -1.34 ± 0.15 | 0.065 ± 0.13
39 | UGGUAGCAAUAUUACGGCAA | -1.14 ± 0.086 | 0.277 ± 0.1
40 | UGGUAGCAAUAUUACGGCGA | -0.171 ± 0.19 | 0.49 ± 0.15
41 | UGGUAGCAAUAUUACGGGAG | -3.82 ± 0.43 | -1.6 ± 0.13
42 | UGGUAGCAAUAUUACGGGCG | 0.0756 ± 0.11 | 0.475 ± 0.12
43 | UGGUAGCAAUAUUACGGUGG | -3.53 ± 0.2 | -1.94 ± 0.14
44 | UGGUAGCAAUAUUACGUAAA | -1.01 ± 0.099 | -0.497 ± 0.11
45 | UGGUAGCAAUAUUACGUACC | -2.93 ± 0.42 | -2.31 ± 0.49
46 | UGGUAGCAAUAUUACGUACU | 0.209 ± 0.34 | –
47 | UGUAAGCAAUAUUACGAAAG | -3.6 ± 0.25 | -2.75 ± 0.34
48 | UGUAAGCAAUAUUACGAACC | -0.477 ± 0.22 | 0.667 ± 0.32
49 | UGUAAGCAAUAUUACGAACG | 0.23 ± 0.13 | 0.542 ± 0.13
50 | UGUAAGCAAUAUUACGCAGA | -3.67 ± 0.42 | -1.72 ± 0.34
51 | UGUAAGCAAUAUUACGCGGG | -4.06 ± 0.29 | -0.563 ± 0.15
